Here are results for 3 molecules from patent US20250076311A1 (Chugai, published 2025).

Changes are numbered by the printed parent chain. Names may count otherwise.

Assay [1] deals with T1, human FcγRIIaR extracellular domain with C-terminal His-tag (human, UniProt P12318 34-217).
T1 construct: also called human FcgRIIaR; FcγRIIa type R; not shown: His-tag added to the C-terminus
T1 chain: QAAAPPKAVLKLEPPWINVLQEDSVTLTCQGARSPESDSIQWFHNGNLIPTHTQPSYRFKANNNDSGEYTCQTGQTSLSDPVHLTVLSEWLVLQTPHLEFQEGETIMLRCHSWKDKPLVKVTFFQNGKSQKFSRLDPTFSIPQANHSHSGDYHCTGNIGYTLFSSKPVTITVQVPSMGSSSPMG
Briefly: SPR (BIACORE); KD of SG1 / KD of variant.

Assay [2] has as its target T2, cynomolgus monkey FcγRIIa2 extracellular domain with C-terminal His-tag (cynomolgus monkey).
T2 construct: also called cyno FcgRIIa2; cynoFcγRIIa2; not shown: His-tag added to the C-terminus
T2 chain: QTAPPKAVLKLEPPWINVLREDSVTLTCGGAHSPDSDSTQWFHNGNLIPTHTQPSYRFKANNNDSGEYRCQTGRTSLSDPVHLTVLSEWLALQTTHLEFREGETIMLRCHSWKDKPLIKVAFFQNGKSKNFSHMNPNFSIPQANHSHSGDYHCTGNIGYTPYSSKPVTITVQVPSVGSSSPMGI
As to the kind of experiment: SPR (BIACORE); KD of SG1 / KD of variant. (In general: In SPR one partner is held on a chip, and binding of the other changes the refractive index at the surface.)

Assay [3] has as its target T3, human FcγRIIb extracellular domain with C-terminal His-tag (human, UniProt P31994 43-217).
T3 construct: also called human FcgRIIb; not shown: His-tag added to the C-terminus
T3 sequence: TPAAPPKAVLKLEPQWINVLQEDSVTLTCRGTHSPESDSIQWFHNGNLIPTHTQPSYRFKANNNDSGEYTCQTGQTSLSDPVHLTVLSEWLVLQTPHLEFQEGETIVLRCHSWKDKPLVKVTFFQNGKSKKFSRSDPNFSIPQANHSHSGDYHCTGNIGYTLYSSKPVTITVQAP
As to the kind of experiment: SPR (BIACORE); KD of SG1 / KD of variant.

In assay [4] the target is T4, cynomolgus monkey FcγRIIIaS extracellular domain with C-terminal His-tag (cynomolgus monkey, UniProt A3RFZ7 21-206 (rhesus entry)).
T4 construct: also called cyno FcgRIIIaS; cynoFcγRIIIaS; not shown: His-tag added to the C-terminus
As to the kind of experiment: SPR (BIACORE); KD of SG1 / KD of variant.

Assay [5] deals with T5, human FcγRIIaH extracellular domain with C-terminal His-tag (human, UniProt P12318 34-217).
T5 construct: also called human FcgRIIaH; FcγRIIa type H; not shown: His-tag added to the C-terminus
T5 sequence: T1 chain with R134H
Briefly: SPR (BIACORE); KD of SG1 / KD of variant.

The target of assay [6] is T6, cynomolgus monkey FcγRIIa3 extracellular domain with C-terminal His-tag (cynomolgus monkey).
T6 construct: also called cyno FcgRIIa3; cynoFcγRIIa3; not shown: His-tag added to the C-terminus
T6 chain: T2 chain with K127I, N130K, H133P, Q142R
As to the kind of experiment: SPR (BIACORE); KD of SG1 / KD of variant.

Assay [7] addresses T7, human FcγRIIIaV extracellular domain with C-terminal His-tag (human, UniProt P08637 17-208).
T7 construct: also called human FcgRIIIaV; not shown: His-tag added to the C-terminus
Briefly: SPR (BIACORE); KD of SG1 / KD of variant.

The target of assay [8] is T8, cynomolgus monkey FcγRIIb extracellular domain with C-terminal His-tag (cynomolgus monkey).
T8 construct: also called cyno FcgRIIb; cynoFcγRIIb; not shown: His-tag added to the C-terminus
T8 chain: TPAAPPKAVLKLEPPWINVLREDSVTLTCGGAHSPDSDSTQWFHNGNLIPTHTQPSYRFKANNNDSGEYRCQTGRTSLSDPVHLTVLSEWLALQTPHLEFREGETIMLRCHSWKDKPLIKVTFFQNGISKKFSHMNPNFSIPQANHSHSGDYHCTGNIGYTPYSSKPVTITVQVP
Briefly: SPR (BIACORE); KD of SG1 / KD of variant.

Assay [9] concerns the target T9, cynomolgus monkey FcγRIIa1 extracellular domain with C-terminal His-tag (cynomolgus monkey).
T9 construct: also called cyno FcgRIIa1; cynoFcγRIIa1; not shown: His-tag added to the C-terminus
T9 chain: T2 chain with T95P, A121T, K127I, S128A, N130K, N135D, Q142R
Briefly: SPR (BIACORE); KD of SG1 / KD of variant.

The target in assay [10] is T1, human FcγRIIaR extracellular domain …. Briefly: SPR (BIACORE), antibody captured, FcgR analyte.
Assay [11] has as its target T2, cynomolgus monkey FcγRIIa2 …. Briefly: SPR (BIACORE), antibody captured, FcgR analyte.
Assay [12] deals with T3, human FcγRIIb extracellular domain with …. Briefly: SPR (BIACORE), antibody captured, FcgR analyte.
The target of assay [13] is T4, cynomolgus monkey FcγRIIIaS …. As to the kind of experiment: SPR (BIACORE), antibody captured, FcgR analyte.
Assay [14] has as its target T5, human FcγRIIaH extracellular domain …. Briefly: SPR (BIACORE), antibody captured, FcgR analyte.
In assay [15] the target is T6, cynomolgus monkey FcγRIIa3 …. As to the kind of experiment: SPR (BIACORE), antibody captured, FcgR analyte.
Assay [16] deals with T7, human FcγRIIIaV extracellular domain …. As to the kind of experiment: SPR (BIACORE), antibody captured, FcgR analyte.
For assay [17], the target named is T8, cynomolgus monkey FcγRIIb extracellular …. As to the kind of experiment: SPR (BIACORE), antibody captured, FcgR analyte.
Assay [18] has as its target T9, cynomolgus monkey FcγRIIa1 …. As to the kind of experiment: SPR (BIACORE), antibody captured, FcgR analyte.
Assay [19] has as its target T10, cynomolgus monkey FcγRIIa2 extracellular domain, His-tagged (cynomolgus monkey).
T10 construct: also called cyno FcgRIIa2; cynoFcγRIIa2; not shown: His-tag added to the C-terminus
T10 chain: T2 chain
Briefly: SPR (BIACORE); KD of SG1 divided by KD of the variant. Here is the method: (§1) The kinetic analysis of interactions between these antibodies and FcγR was carried out using BIACORE® T200 or BIACORE® 4000 (GE Healthcare). HBS-EP+ (GE Healthcare) was used as the running buffer, and the measurement temperature was set to 25° C. […] After the measurement, the antibody captured on the chip was washed off by allowing reaction with 10 mM glycine-HCl, pH1.5 and 25 mM NaOH so that the chip was regenerated and used repeatedly. The sensorgrams obtained as measurement results were analyzed by the 1:1 Langmuir binding model using the BIACORE® Evaluation Software to calculate the binding rate constant ka (L/mol/s) and dissociation rate constant kd (1/s), and the dissociation constant KD (mol/L) was calculated from these values. […] Regarding such interactions, KD values were calculated using the following 1:1 binding model described in BIACORE® T100 Software Handbook BR1006-48 Edition AE.

Assay [20] concerns the target T11, cynomolgus monkey FcγRIIa3 extracellular domain, His-tagged (cynomolgus monkey).
T11 construct: also called cyno FcgRIIa3; cynoFcγRIIa3; not shown: His-tag added to the C-terminus
T11 chain: T2 chain with K127I, N130K, H133P, Q142R
The assay is described as above. Here is the method: as §1

Assay [21] addresses T12, human FcγRIIaR extracellular domain, His-tagged (human, UniProt P12318 34-217).
T12 construct: also called human FcgRIIaR; FcγRIIa (type R); not shown: His-tag added to the C-terminus
T12 chain: T1 chain
The description is as above. Here is the method:
as §1

In assay [22] the target is T13, cynomolgus monkey FcγRIIIaS extracellular domain, His-tagged (cynomolgus monkey, UniProt A3RFZ7 21-206 (rhesus entry)).
T13 construct: also called cyno FcgRIIIaS; cynoFcγRIIIaS; not shown: His-tag added to the C-terminus
The assay is described as above. The procedure: as §1

The target in assay [23] is T14, human FcγRIIaH extracellular domain, His-tagged (human, UniProt P12318 34-217).
T14 construct: also called human FcgRIIaH; FcγRIIa (type H); not shown: His-tag added to the C-terminus
T14 sequence: T1 chain with R134H
Briefly: SPR (BIACORE), antibody captured on chip, soluble FcgR as analyte, 25 C. The procedure:
as §1

For assay [24], the target named is T15, cynomolgus monkey FcγRIIb extracellular domain, His-tagged (cynomolgus monkey).
T15 construct: also called cyno FcgRIIb; cynoFcγRIIb; not shown: His-tag added to the C-terminus
T15 chain: T8 chain
Described as above. Here is the method: as §1

For assay [25], the target named is T16, human FcγRIIb extracellular domain, His-tagged (human, UniProt P31994 43-217).
T16 construct: also called human FcgRIIb; not shown: His-tag added to the C-terminus
T16 sequence: T3 sequence
The description is as above. The procedure: as §1

Assay [26] concerns the target T17, cynomolgus monkey FcγRIIa1 extracellular domain, His-tagged (cynomolgus monkey).
T17 construct: also called cyno FcgRIIa1; cynoFcγRIIa1; not shown: His-tag added to the C-terminus
T17 chain: T2 chain with T95P, A121T, K127I, S128A, N130K, N135D, Q142R
Briefly: SPR (BIACORE); KD of SG1 divided by KD of the variant. Here is the method: as §1

T4 sequence (A3RFZ7 21-206): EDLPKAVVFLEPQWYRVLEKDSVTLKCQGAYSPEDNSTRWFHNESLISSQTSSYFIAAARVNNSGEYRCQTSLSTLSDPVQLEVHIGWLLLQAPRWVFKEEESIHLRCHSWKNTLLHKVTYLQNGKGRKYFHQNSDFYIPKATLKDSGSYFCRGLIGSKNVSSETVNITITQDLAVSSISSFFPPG
T7 sequence (P08637 17-208 F176V): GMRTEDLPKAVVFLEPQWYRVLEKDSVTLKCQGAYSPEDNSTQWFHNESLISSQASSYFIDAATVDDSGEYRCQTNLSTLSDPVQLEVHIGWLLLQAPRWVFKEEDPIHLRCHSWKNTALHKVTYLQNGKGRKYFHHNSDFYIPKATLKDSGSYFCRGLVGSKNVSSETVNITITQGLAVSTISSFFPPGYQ
T13 sequence (A3RFZ7 21-206): as the sequence (A3RFZ7 21-206) above

B1: M103205H795-MY146/M103202L889-SK1 (antibody, human IgG1, kappa, name in EU numbering)
heavy: QVTLKESGPVLVKPTETLTLTCTVSGIDLSHDDISWVRQAPGKGLEWVGIISYAGSTYYASWAKGRLTISKDTSKNQVVLTMTNMDPVDTATYYCARGVPAYSHGGDLWGQGTLVTVSSASTKGPSVFPLAPSSKSTSGGTAALGCLVKDYFPEPVTVSWNSGALTSGVHTFPAVLQSSGLYSLSSVVTVPSSSLGTQTYICNVNHKPSNTKVDKKVEPKSCDKTHTCPPCPAPELLNGPSVFLFPPKPKDTLMISRTPEVTCVVVDVSEEDPEVKFNWYVDGVEVHNAKTKPREEQYNLTYRVVSVLTVLHQDWLNGKEYKCKVSNKALPAPIEKTISKAKGQPREPQVYTLPPSREEMTKNQVSLTCLVKGFYPSDIAVEWESNGQPENNYKTTPMVLDSDGSFFLYSKLTVDKSRWQQGNVFSCSVMHEALHNHYTQKSLSLSP
light: DIVMTQSPATLSLSPGERATLSCTSSQSVYHANWLSWFQQKPGQPPKLLIYWASTLAYGVPSRFSGSGSGTDFTLTISSLQPEDAATYYCAGGYGGGRYAFGQGTKVEIKRTVAAPSVFIFPPSDEQLKSGTASVVCLLNNFYPREAKVQWKVDNALQSGNSQESVTEQDSKDSTYSLSSTLTLSKADYEKHKVYACEVTHQGLSSPVTKSFNRGEC
notes: Fc variant of MS1032LO06-SG1; positions in EU numbering
B1: the “KD fold (SG1 = 1)” value came to 0.5 fold in assay [1]; 2.8 fold in assay [2]; 5.2 fold in assay [3]; 0.12 fold in assay [4]; 0.3 fold in assay [5]; 3.5 fold in assay [6]. Also, the “KD fold (SG1 = 1)” value was 0.09 fold in assay [7], 2.1 fold in [8] and 18.8 fold in assay [9]. Also, the Kd – broadly, the equilibrium constant for the complex coming apart – was 2100 nM in assay [10]; 1800 nM in assay [11]; 880 nM in [12]; 3100 nM in assay [13]; 2200 nM in [14]; 4800 nM in [15]. In addition, the Kd came out at 8800 nM in [16], 850 nM in assay [17] and 170 nM in assay [18].

B2: M103205H795-MY201/M103202L889-SK1 (antibody, human IgG1, kappa)
heavy: B1 heavy with E270D, L300S, A332K, M398P
light: B1 light
notes: Fc variant of SG1 with G236N/H268D/A330K; also called MS1032LO06-MY201
For the molecule B2, the “KD fold (SG1 = 1)” value in assay [19] was found to be 3.8 fold; in assay [20] it was 4 fold; in assay [21], 0.5 fold; in [22] it was 0.05 fold.

B3: M103205H795-MY264/M103202L889-SK1 (antibody, human IgG1, kappa, name in EU numbering)
heavy: B1 heavy with N238L, E270D, L300S, A332K, M398P
light: B1 light
notes: Asn at EU 236 of MY201 replaced with Leu
With B3, the values for the dissociation constant Kd in assay [23], in assay [24] and in [25] were 150 nM, 260 nM and 22000 nM, respectively. Further, the “KD fold (SG1 = 1)” value in [26] amounted to 0.8 fold; in assay [20] it was 2.1 fold.
